# Reference: the supplement of paper PMC10567573
# B1: EHMT1 (parent)
# chain: SARQGELQKVLLMLVDGIDPNFKM
# B2: FBXO34 (parent)
# chain: ASSVESTLPVLEASSWKKQVSHDF
# Variants of: B1
# Experiment: protein stability index of a GFP-peptide fusion (GPS, HEK-293T) (PSI 1-6); higher = more stable
# Conditions: c terminus: a fixed tail appended
# 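Note: lentivirally expressed fusions sorted by FACS into six bins by GFP to DsRed ratio, PSI derived from sequencing read proportions per bin multiplied by bin number.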
row,Variant,protein stability index
1,M13I,1.04
2,M13A,1.73
3,Q8H,1.93
4,A2F,2.81
5,A2R,1.28
6,K23Q,2.39
7,K23D,2.17
8,F22D,2.01
9,F22E,2.69
10,V10M,2.12
11,V10N,3.15
12,E6L,1.99
13,G17C,2
14,G17K,1.36
15,G17Y,2.38
16,G17H,1.87
17,G5W,2.55
18,G5Q,1.93
19,G5F,1.98
20,K9N,1.91

row,Variant,protein stability index
1,K9V,4.22
2,Q4C,2.29
3,V15K,2.25
4,S1H,2.42
5,S1R,2.2
6,S1F,1.97
7,L12N,2.42
8,R3W,3.4
9,D16P,2.41
10,D16E,1.51
11,L14D,3.47
12,L14P,3.21
13,L14A,2.39
14,L11M,1.38
15,L11E,3.28
16,L11P,3.13
17,M24H,1.19
18,M24Q,1.84
19,L7C,1.03

# Variants of: B2
# Experiment: as above
# Conditions: c terminus: a fixed tail appended
row,Variant,protein stability index
1,H22W,2.18
2,H22L,3.36
3,H22N,2.54
4,H22V,2.83
5,H22I,2.84
6,H22M,2.23
7,H22E,2.69
8,H22R,2.09
9,H22G,4.47
10,H22F,2.73
11,H22Y,3.01
12,H22P,4.1
13,H22K,3.31
14,H22S,2.79
15,H22D,3.65
16,H22T,3.19
17,H22C,2.94
18,H22Q,2.58
19,F24V,3.83
20,F24W,2.45
21,F24L,2.31
22,F24Q,4.25
23,F24G,2.98
24,F24C,3.49
25,F24T,3.77
26,F24I,2.19

row,Variant,protein stability index
1,F24S,4.33
2,F24P,4.26
3,F24H,3.98
4,F24K,4.79
5,F24M,3
6,F24Y,3
7,F24R,4.53
8,F24N,4.25
9,F24A,3.78
10,D23M,2.96
11,D23G,3.06
12,D23R,3.76
13,D23S,3.14
14,D23A,3.54
15,D23C,2.22
16,D23K,3.54
17,D23I,2.07
18,D23L,3.27
19,D23F,3.22
20,D23Y,2.18
21,D23E,1.77
22,D23T,3.26
23,D23H,3.27
24,D23W,2.61
25,D23P,2.91
26,D23Q,2.93

row,Variant,protein stability index
1,Q19D,4.28
2,Q19W,2.59
3,Q19T,3.3
4,Q19H,4.77
5,Q19A,2.61
6,Q19M,2.27
7,Q19Y,2.01
8,Q19I,2.45
9,Q19P,4.53
10,Q19N,3.97
11,Q19R,1.95
12,Q19S,4.08
13,Q19G,4.14
14,Q19L,2.57
15,Q19K,1.89
16,Q19C,2.92
17,Q19F,2.82
18,Q19E,4.58
19,K18E,1.38
20,K18P,2.99
21,K18Y,2.44
22,K18C,2.11
23,K18I,2.37
24,K18G,3.49
25,K18V,2.53
26,K18T,2.95

row,Variant,protein stability index
1,K18D,1.88
2,K18N,2.94
3,K18Q,2.69
4,K18F,1.8
5,K18M,1.5
6,K18S,3.72
7,K18R,3.15
8,K18W,2.58
9,K18A,2.21
10,K18L,2.83
11,K18H,2.39
12,V20L,3.55
13,V20F,3.72
14,V20H,4.6
15,V20I,3.69
16,V20Y,3.5
17,V20K,4.3
18,V20T,4.29
19,V20P,4.04
20,V20M,4.34
21,V20R,4.22
22,V20N,4.13
23,V20C,3.44
24,V20G,4.09
25,V20Q,4.01
26,V20W,2.47

row,Variant,protein stability index
1,V20E,4.85
2,V20D,4.84
3,V20A,3.91
4,S21P,3.87
5,S21V,3.65
6,S21D,4.89
7,S21C,2.72
8,S21R,3.79
9,S21Y,2.97
10,S21E,2.76
11,S21H,3.58
12,S21T,3.61
13,S21W,2.3
14,S21F,2.89
15,S21A,3.31
16,S21I,2.64
17,S21G,2.79
18,S21Q,3.08
19,S21L,2.44
20,S21K,3.26
21,S21M,3
22,S21N,3.64
23,K17Y,2.38
24,K17W,2.02
